What was measured:
FAM19A5 protein [1] = target: T1, FAM19A5 protein (Homo sapiens, UniProt Q7Z5A7); test: competitive inhibition ELISA; competitor: coated LRRC4B(453-576)-hFc
FAM19A5 protein [2] = target: T1, FAM19A5 protein; test: competitive inhibition ELISA; competitor: coated LRRC4B(36-576)-hFc
FAM19A5 protein [3] = target: T1, FAM19A5 protein; test: Co-immunoprecipitation of FLAG-tagged LRRC4 family deletion constructs/fragments with recombinant FAM19A5 in HEK293 cells; format: binding; details: HEK293 cells expressing FLAG-tagged construct, recombinant FAM19A5 1 μM 30 minutes; IP anti-FLAG, blot anti-FAM19A5 (3-2)
Procedure: To understand the interaction between FAM19A5 and members of the LRRC4 protein family, HEK293 cells were modified to express a FLAG-tagged member of the LRRC4 protein family, i.e., LRRC4C protein, LRRC4 protein, or LRRC4B protein. Then, the HEK293 cells or primary cortical neurons were treated with recombinant FAM19A5 protein (1 μM) for 30 minutes, and the binding between FAM19A5 protein and the different members of the LRRC4 protein family was assessed using both co-immunoprecipitation and immunofluorescence assays.
For the co-immunoprecipitation assay, cell lysates from the different FAM19A5-treated HEK293 cells were collected and immunoprecipitated with an anti-FLAG antibody, anti-FAM19A5 (1-65) antibody, or a human IgG antibody (control). Immunoprecipitated proteins were immunoblotted with anti-FLAG and anti-FAM19A5 (3-2) antibodies. For the immunofluorescence assay, the HEK293 cells treated with the recombinant FAM19A5 protein were immunostained with anti-FAM19A5 (3-2) (to detect FAM19A5 protein expression) and anti-FLAG antibodies (to detect member of the LRRC4 protein family). The primary cortical neurons treated with the recombinant FAM19A5 protein were immunostained with anti-FAM19A5 (3-2) and anti-LRRC4B antibodies. The nuclei were stained with Hoechst33342 (blue).
To determine the specific motif or domain of the LRRC4B protein that is responsible for the binding to a FAM19A5 protein, various FLAG-tagged LRRC4B deletion constructs were generated (see Table 6 below). HEK293 cells were transfected with the different deletion constructs and then treated with recombinant FAM19A5 protein as described in Example 1. Then, the cell lysates from the different HEK293 cells were immunoprecipitated with the anti-FLAG antibody. The immunoprecipitated proteins were immunoblotted with anti-FLAG and anti-FAM19A5 (3-2) antibodies.
As described in Example 2, all members of the LRRC4 protein family were capable of binding to FAM19A5 protein to varying degrees. Therefore, to compare the bindings domains, the amino acid sequences of the LRRC4B, LRRC4, and LRRC4C proteins were aligned. […] Therefore, to assess whether the corresponding positions of LRRC4 and LRRC4C were important in the binding of these proteins to FAM19A5 protein, cDNAs encoding either (i) LRRC4C protein fragment (amino acids 354-527 of SEQ ID NO: 3; SEQ ID NO: 66) or (ii) LRRC4 protein fragment (amino acids 353-527 of SEQ ID NO: 1; SEQ ID NO: 67) were constructed (see Table 7). HEK293 cells were transfected to express either of the protein fragments and then treated with recombinant FAM19A5 protein as described in Example 1. Then, the cell lysates from the different HEK293 cells were immunoprecipitated with the anti-FLAG antibody. The immunoprecipitated proteins were immunoblotted with anti-FLAG and anti-FAM19A5 (3-2) antibodies.
Target sequence in this assay (Q7Z5A7 44-132): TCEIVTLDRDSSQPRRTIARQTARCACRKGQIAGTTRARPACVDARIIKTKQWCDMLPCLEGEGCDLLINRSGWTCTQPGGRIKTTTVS

| Molecule | Inhibition rate (%) (FAM19A5 protein [1]) | Inhibition rate (%) (FAM19A5 protein [2]) | binding to FAM19A5 protein (co-immunoprecipitation) (FAM19A5 protein [3]) |
| --- | --- | --- | --- |
| GYTYFTTVAVETLETQPGEE [FB-20[A8]] | -0.4% | 3.9% |  |
| LRRC4B (453-713): FLAG-tagged LRRC4B deletion construct, amino acids 453-713 of SEQ ID NO: 2 (protein, FLAG tag) VSAVDPVAAGGTGSGGGGPGGSGGVGGGSGGYTYFTTVTVETLETQPGEEALQPRGTEKEPPGPTTDGVWGGGRPGDAAGPASSSTTAPAPRSSRPTEKAFTVPITDVTENALKDLDDVMKTTKIIIGCFVAITFMAAVMLVAFYKLRKQHQLHKHHGPTRTVEIINVEDELPAASAVSVAAAAAVASGGGVGGDSHLALPALERDHLNHHHYVAAAFKAHYSSNPSGGGCGGKGPPGLNSIHEPLLFKSGSKENVQETQI |  |  | able to bind to the FAM19A5 protein with varying degree |
| GYTYFTTVTVATLETQPGEE [FB-20[A10]] | 6.4% | 19.6% |  |
| GYTYFTTVTAETLETQPGEE [FB-20[A9]] | 3.8% | 21.5% |  |
| LRRC4B (157-713): FLAG-tagged LRRC4B deletion construct, amino acids 157-713 of SEQ ID NO: 2 (protein, FLAG tag) LSKLRELWLRNNPIESIPSYAFNRVPSLRRLDLGELKRLEYISEAAFEGLVNLRYLNLGMCNLKDIPNLTALVRLEELELSGNRLDLIRPGSFQGLTSLRKLWLMHAQVATIERNAFDDLKSLEELNLSHNNLMSLPHDLFTPLHRLERVHLNHNPWHCNCDVLWLSWWLKETVPSNTTCCARCHAPAGLKGRYIGELDQSHFTCYAPVIVEPPTDLNVTEGMAAELKCRTGTSMTSVNWLTPNGTLMTHGSYRVRISVLHDGTLNFTNVTVQDTGQYTCMVTNSAGNTTASATLNVSAVDPVAAGGTGSGGGGPGGSGGVGGGSGGYTYFTTVTVETLETQPGEEALQPRGTEKEPPGPTTDGVWGGGRPGDAAGPASSSTTAPAPRSSRPTEKAFTVPITDVTENALKDLDDVMKTTKIIIGCFVAITFMAAVMLVAFYKLRKQHQLHKHHGPTRTVEIINVEDELPAASAVSVAAAAAVASGGGVGGDSHLALPALERDHLNHHHYVAAAFKAHYSSNPSGGGCGGKGPPGLNSIHEPLLFKSGSKENVQETQI |  |  | able to bind to the FAM19A5 protein with varying degree |
| LRRC4B (36-713): FLAG-tagged LRRC4B deletion construct, amino acids 36-713 of SEQ ID NO: 2 (protein, FLAG tag) AGGGGVAVTSAAGGGSPPATSCPVACSCSNQASRVICTRRDLAEVPASIPVNTRYLNLQENGIQVIRTDTFKHLRHLEILQLSKNLVRKIEVGAFNGLPSLNTLELFDNRLTTVPTQAFEYLSKLRELWLRNNPIESIPSYAFNRVPSLRRLDLGELKRLEYISEAAFEGLVNLRYLNLGMCNLKDIPNLTALVRLEELELSGNRLDLIRPGSFQGLTSLRKLWLMHAQVATIERNAFDDLKSLEELNLSHNNLMSLPHDLFTPLHRLERVHLNHNPWHCNCDVLWLSWWLKETVPSNTTCCARCHAPAGLKGRYIGELDQSHFTCYAPVIVEPPTDLNVTEGMAAELKCRTGTSMTSVNWLTPNGTLMTHGSYRVRISVLHDGTLNFTNVTVQDTGQYTCMVTNSAGNTTASATLNVSAVDPVAAGGTGSGGGGPGGSGGVGGGSGGYTYFTTVTVETLETQPGEEALQPRGTEKEPPGPTTDGVWGGGRPGDAAGPASSSTTAPAPRSSRPTEKAFTVPITDVTENALKDLDDVMKTTKIIIGCFVAITFMAAVMLVAFYKLRKQHQLHKHHGPTRTVEIINVEDELPAASAVSVAAAAAVASGGGVGGDSHLALPALERDHLNHHHYVAAAFKAHYSSNPSGGGCGGKGPPGLNSIHEPLLFKSGSKENVQETQI |  |  | able to bind to the FAM19A5 protein with varying degree |
| LRRC4B (230-713): FLAG-tagged LRRC4B deletion construct, amino acids 230-713 of SEQ ID NO: 2 (protein, FLAG tag) RLEELELSGNRLDLIRPGSFQGLTSLRKLWLMHAQVATIERNAFDDLKSLEELNLSHNNLMSLPHDLFTPLHRLERVHLNHNPWHCNCDVLWLSWWLKETVPSNTTCCARCHAPAGLKGRYIGELDQSHFTCYAPVIVEPPTDLNVTEGMAAELKCRTGTSMTSVNWLTPNGTLMTHGSYRVRISVLHDGTLNFTNVTVQDTGQYTCMVTNSAGNTTASATLNVSAVDPVAAGGTGSGGGGPGGSGGVGGGSGGYTYFTTVTVETLETQPGEEALQPRGTEKEPPGPTTDGVWGGGRPGDAAGPASSSTTAPAPRSSRPTEKAFTVPITDVTENALKDLDDVMKTTKIIIGCFVAITFMAAVMLVAFYKLRKQHQLHKHHGPTRTVEIINVEDELPAASAVSVAAAAAVASGGGVGGDSHLALPALERDHLNHHHYVAAAFKAHYSSNPSGGGCGGKGPPGLNSIHEPLLFKSGSKENVQETQI |  |  | able to bind to the FAM19A5 protein with varying degree |
| LRRC4B (364-713): FLAG-tagged LRRC4B deletion construct, amino acids 364-713 of SEQ ID NO: 2 (protein, FLAG tag) PVIVEPPTDLNVTEGMAAELKCRTGTSMTSVNWLTPNGTLMTHGSYRVRISVLHDGTLNFTNVTVQDTGQYTCMVTNSAGNTTASATLNVSAVDPVAAGGTGSGGGGPGGSGGVGGGSGGYTYFTTVTVETLETQPGEEALQPRGTEKEPPGPTTDGVWGGGRPGDAAGPASSSTTAPAPRSSRPTEKAFTVPITDVTENALKDLDDVMKTTKIIIGCFVAITFMAAVMLVAFYKLRKQHQLHKHHGPTRTVEIINVEDELPAASAVSVAAAAAVASGGGVGGDSHLALPALERDHLNHHHYVAAAFKAHYSSNPSGGGCGGKGPPGLNSIHEPLLFKSGSKENVQETQI |  |  | able to bind to the FAM19A5 protein with varying degree |
| GYTYFTAVTVETLETQPGEE [FB-20[A6]] | 11% | 17.9% |  |

Now from value to molecule, other results behind:

| Inhibition rate (%) (FAM19A5 protein [1]) | Inhibition rate (%) (FAM19A5 protein [2]) | Molecule | binding to FAM19A5 protein (co-immunoprecipitation) (FAM19A5 protein [3]) |
| --- | --- | --- | --- |
| 7.9% | 26.8% | GYTYFTTATVETLETQPGEE [FB-20[A7]] |  |
| 27.2% | 51.4% | GYTYFTTVTVETLATQPGEE [FB-20[A13]] |  |
| 50.3% | 73.4% | GYTYFTTVTVEALETQPGEE [FB-20[A11]] |  |
| 56.2% | 73% | GYTYFTTVTVETAETQPGEE [FB-20[A12]] |  |
| 22.2% | 53.4% | GYTYFATVTVETLETQPGEE [FB-20[A5]] |  |
